Assay results reported in article PMC11178869.

B1: TatC with C-terminal hexahistidine tag, wild type (TatABC system) [E. coli] / TatA [E. coli] (parent)
chain 1: MGGISIWQLLIIAVIVVLLFGTKKLGSIGSDLGASIKGFKKAMSDDEPKQDKTSQDADFTAKTIADKQADTNQEQAKTEDAKRHDKEQV
chain 2: MSVEDTQPLITHLIELRKRLLNCIIAVIVIFLCLVYFANDIYHLVSAPLIKQLPQGSTMIATDVASPFFTPIKLTFMVSLILSAPVILYQVWAFIAPALYKHERRLVVPLLVSSSLLFYIGMAFAYFVVFPLAFGFLANTAPEGVQVSTDIASYLSFVMALFMAFGVSFEVPVAIVLLCWMGITSPEDLRKKRPYVLVGAFVVGMLLTPPDVFSQTLLAIPMYCLFEIGVFFSRFYVGKGRNREEENDAEAESEKTEE
B2: TatC with C-terminal hexahistidine tag, wild type (TatABC system) [E. coli] / TatB [E. coli] (parent)
chain 1: MFDIGFSELLLVFIIGLVVLGPQRLPVAVKTVAGWIRALRSLATTVQNELTQELKLQEFQDSLKKVEKASLTNLTPELKASMDELRQAAESMKRSYVANDPEKASDEAHTIHNPVVKDNEAAHEGVTPAAAQTQASSPEQKPETTPEPVVKPAADAEPKTAAPSPSSSDKP
chain 2: B1 chain 2

Variants of: B1
Assay: affinity purification (H6-tagged TatC) with SDS-PAGE/Western-blot band quantification
Details: eight replicates, read off a plot

response [signal ratio]	Variant
0.67	chain 2 L189A
1.3	chain 2 I50Y
1.6	chain 2 Y154A

Variants of: B2
Assay: as above
Details: eight replicates, read off a plot

response [signal ratio]	Variant
0.81	chain 2 Y154A
0.86	chain 2 I50Y
0.97	chain 2 L189A
